B1: Guanine nucleotide exchange factor for Rab-3A (Homo sapiens), Q8TBN0 (parent)
chain: MWSGPPQPDQGLPPPLAAVPVPWKSTDPCQGHRESPGALVETSAGEEAQGQEGPAAAQLDVLRLRSSSMEIREKGSEFLKEELHRAQKELKLKDEECERLSKVREQLEQELEELTASLFEEAHKMVREANMKQAASEKQLKEARGKIDMLQAEVTALKTLVITSTPASPNRELHPQLLSPTKAGPRKGHSRHKSTSSTLCPAVCPAAGHTLTPDREGKEVDTILFAEFQAWRESPTLDKTCPFLERVYREDVGPCLDFTMQELSVLVRAAVEDNTLTIEPVASQTLPTVKVAEVDCSSTNTCALSGLTRTCRHRIRLGDSKSHYYISPSSRARITAVCNFFTYIRYIQQGLVRQDAEPMFWEIMRLRKEMSLAKLGFFPQEA
B2: F-box only protein 3 (Homo sapiens), Q9UK99 (parent)
chain: MAAMETETAPLTLESLPTDPLLLILSFLDYRDLINCCYVSRRLSQLSSHDPLWRRHCKKYWLISEEEKTQKNQCWKSLFIDTYSDVGRYIDHYAAIKKAWDDLKKYLEPRCPRMVLSLKEGAREEDLDAVEAQIGCKLPDDYRCSYRIHNGQKLVVPGLLGSMALSNHYRSEDLLDVDTAAGGFQQRQGLKYCLPLTFCIHTGLSQYIAVEAAEGRNKNEVFYQCPDQMARNPAAIDMFIIGATFTDWFTSYVKNVVSGGFPIIRDQIFRYVHDPECVATTGDITVSVSTSFLPELSSVHPPHYFFTYRIRIEMSKDALPEKACQLDSRYWRITNAKGDVEEVQGPGVVGEFPIISPGRVYEYTSCTTFSTTSGYMEGYYTFHFLYFKDKIFNVAIPRFHMACPTFRVSIARLEMGPDEYEEMEEEEEEEEEEDEDDDSADMDESDEDDEEERRRRVFDVPIRRRRCSRLF
B3: Tyrosine-protein kinase FRK (Homo sapiens), P42685 (parent)
chain: MSNICQRLWEYLEPYLPCLSTEADKSTVIENPGALCSPQSQRHGHYFVALFDYQARTAEDLSFRAGDKLQVLDTLHEGWWFARHLEKRRDGSSQQLQGYIPSNYVAEDRSLQAEPWFFGAIGRSDAEKQLLYSENKTGSFLIRESESQKGEFSLSVLDGAVVKHYRIKRLDEGGFFLTRRRIFSTLNEFVSHYTKTSDGLCVKLGKPCLKIQVPAPFDLSYKTVDQWEIDRNSIQLLKRLGSGQFGEVWEGLWNNTTPVAVKTLKPGSMDPNDFLREAQIMKNLRHPKLIQLYAVCTLEDPIYIITELMRHGSLQEYLQNDTGSKIHLTQQVDMAAQVASGMAYLESRNYIHRDLAARNVLVGEHNIYKVADFGLARVFKVDNEDIYESRHEIKLPVKWTAPEAIRSNKFSIKSDVWSFGILLYEIITYGKMPYSGMTGAQVIQMLAQNYRLPQPSNCPQQFYNIMLECWNAEPKERPTFETLRWKLEDYFETDSSYSDANNFIR
partner: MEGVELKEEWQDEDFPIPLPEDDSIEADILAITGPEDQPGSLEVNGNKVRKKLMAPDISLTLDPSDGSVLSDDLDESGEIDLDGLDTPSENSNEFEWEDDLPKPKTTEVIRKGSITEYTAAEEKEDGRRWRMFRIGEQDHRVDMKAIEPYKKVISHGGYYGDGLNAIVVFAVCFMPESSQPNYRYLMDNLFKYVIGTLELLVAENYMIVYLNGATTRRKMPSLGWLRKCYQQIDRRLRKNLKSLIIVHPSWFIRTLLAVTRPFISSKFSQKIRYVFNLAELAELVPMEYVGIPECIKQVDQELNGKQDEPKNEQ
B4: ATP-binding cassette sub-family F member 3 (Homo sapiens), Q9NUQ8 (parent)
chain: MATCAEILRSEFPEIDGQVFDYVTGVLHSGSADFESVDDLVEAVGELLQEVSGDSKDDAGIRAVCQRMYNTLRLAEPQSQGNSQVLLDAPIQLSKITENYDCGTKLPGLLKREQSSTVNAKKLEKAEARLKAKQEKRSEKDTLKTSNPLVLEEASASQAGSRKESRLESSGKNKSYDVRIENFDVSFGDRVLLAGADVNLAWGRRYGLVGRNGLGKTTLLKMLATRSLRVPAHISLLHVEQEVAGDDTPALQSVLESDSVREDLLRRERELTAQIAAGRAEGSEAAELAEIYAKLEEIEADKAPARASVILAGLGFTPKMQQQPTREFSGGWRMRLALARALFARPDLLLLDEPTNMLDVRAILWLENYLQTWPSTILVVSHDRNFLNAIATDIIHLHSQRLDGYRGDFETFIKSKQERLLNQQREYEAQQQYRQHIQVFIDRFRYNANRASQVQSKLKMLEKLPELKPVDKESEVVMKFPDGFEKFSPPILQLDEVDFYYDPKHVIFSRLSVSADLESRICVVGENGAGKSTMLKLLLGDLAPVRGIRHAHRNLKIGYFSQHHVEQLDLNVSAVELLARKFPGRPEEEYRHQLGRYGISGELAMRPLASLSGGQKSRVAFAQMTMPCPNFYILDEPTNHLDMETIEALGRALNNFRGGVILVSHDERFIRLVCRELWVCEGGGVTRVEGGFDQYRALLQEQFRREGFL
partner: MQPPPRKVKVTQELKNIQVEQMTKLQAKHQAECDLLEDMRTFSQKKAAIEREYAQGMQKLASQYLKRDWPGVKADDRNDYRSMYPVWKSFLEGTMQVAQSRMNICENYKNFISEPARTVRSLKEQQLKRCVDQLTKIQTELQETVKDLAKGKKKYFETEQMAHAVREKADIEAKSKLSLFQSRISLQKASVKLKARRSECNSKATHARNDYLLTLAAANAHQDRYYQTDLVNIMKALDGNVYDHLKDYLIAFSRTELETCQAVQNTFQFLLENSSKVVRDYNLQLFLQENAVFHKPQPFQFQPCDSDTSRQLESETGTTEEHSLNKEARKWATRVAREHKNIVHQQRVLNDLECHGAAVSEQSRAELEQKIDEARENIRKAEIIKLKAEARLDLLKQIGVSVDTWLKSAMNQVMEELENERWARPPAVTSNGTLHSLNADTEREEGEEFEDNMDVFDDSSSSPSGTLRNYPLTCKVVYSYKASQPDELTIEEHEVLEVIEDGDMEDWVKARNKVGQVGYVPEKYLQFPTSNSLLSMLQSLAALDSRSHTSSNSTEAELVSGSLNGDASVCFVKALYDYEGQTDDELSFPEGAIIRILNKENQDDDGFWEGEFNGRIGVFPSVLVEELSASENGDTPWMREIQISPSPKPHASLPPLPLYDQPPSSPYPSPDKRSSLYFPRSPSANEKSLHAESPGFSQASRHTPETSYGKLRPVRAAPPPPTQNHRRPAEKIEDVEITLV
B5: Mothers against decapentaplegic homolog 4 (Homo sapiens), Q13485 (parent)
chain: MDNMSITNTPTSNDACLSIVHSLMCHRQGGESETFAKRAIESLVKKLKEKKDELDSLITAITTNGAHPSKCVTIQRTLDGRLQVAGRKGFPHVIYARLWRWPDLHKNELKHVKYCQYAFDLKCDSVCVNPYHYERVVSPGIDLSGLTLQSNAPSSMMVKDEYVHDFEGQPSLSTEGHSIQTIQHPPSNRASTETYSTPALLAPSESNATSTANFPNIPVASTSQPASILGGSHSEGLLQIASGPQPGQQQNGFTGQPATYHHNSTTTWTGSRTAPYTPNLPHHQNGHLQHHPPMPPHPGHYWPVHNELAFQPPISNHPAPEYWCSIAYFEMDVQVGETFKVPSSCPIVTVDGYVDPSGGDRFCLGQLSNVHRTEAIERARLHIGKGVQLECKGEGDVWVRCLSDHAVFVQSYYLDREAGRAPGDAVHKIYPSAYIKVFDLRQCHRQMQQQAATAQAAAAAQAAAVAGNIPGPGSVGGIAPAISLSAAAGIGVDDLRRLCILRMSFVKGWGPDYPRQSIKETPCWIEIHLHRALQLLDEVLHTMPIADPQPLD
partner: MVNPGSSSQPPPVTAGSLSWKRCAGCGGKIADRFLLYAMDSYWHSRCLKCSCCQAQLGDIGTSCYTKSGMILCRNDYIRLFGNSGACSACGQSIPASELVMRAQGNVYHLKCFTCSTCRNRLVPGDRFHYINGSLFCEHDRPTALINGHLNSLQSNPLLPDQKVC

Variants of: B1
Settings: with rb11a_human RAB11A

Variant | effect of a mutation on the interaction
T26A | with no effect
S190P | with no effect

Variants of: B2
Settings: with skp1_human SKP1, P63208
skp1_human SKP1, P63208, sequence (P63208 whole entry): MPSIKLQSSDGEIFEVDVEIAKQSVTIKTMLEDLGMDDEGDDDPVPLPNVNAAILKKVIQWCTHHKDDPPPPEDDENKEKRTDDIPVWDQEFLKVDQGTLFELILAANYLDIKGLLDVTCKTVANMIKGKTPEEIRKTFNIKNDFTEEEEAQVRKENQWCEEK

Variant | effect of a mutation on the interaction
P10S | with no effect

Variants of: B3
Settings: with bnip2_human BNIP2, Q12982

Variant | effect of a mutation on the interaction
G122R | disrupting interaction strength

Variants of: B4
Settings: with fcsd2_human FCHSD2, O94868

Variant | effect of a mutation on the interaction
R510H | with no effect
R340W | with no effect

Variants of: B5
Settings: with lmo4_human LMO4, P61968

Variant | effect of a mutation on the interaction
R361C | with no effect
V350D | disrupting interaction strength
G352R | with no effect
E330K | with no effect
N13S | with no effect

Reference: IntAct's records for PubMed 31515488
